Where a chain is given by its changes, count along the chain named. Numbers in names are those of the source.

Experiment [1] concerns the target T1, ICAM-1 (Homo sapiens, UniProt P05362). Nature of the experiment: BIAcore binding of soluble αL I-domains to ICAM-1. Particulars: for Kon, interaction of αL I-domains with ICAM-1: calculated by Koff/KD; for Koff, interaction of αL I-domains with ICAM-1: curve fitting of dissociation phase, 1:1 binding model. As for the experimental part: Briefly, recombinant mutant αL I-domain stabilized in the open conformation (K287C/K294C), or recombinant wild-type αL I-domain from amino acid residue G128 to Y307, were cloned into pET11b (Novagen) and expressed in E. coli induced with 1 mM IPTG for 4 hours. The recombinant proteins were purified from inclusion bodies by solubilization of inclusion bodies in 6M guanidine HCl and were refolded by dilution in the presence of 0.1 mM Cu^2+/phenanthrolin to enhance formation of disulfide bonds. Protein was concentrated by ammonium sulfate precipitation, dialyzed, and purified over a monoQ ion-exchange column. […] The recombinant proteins were then purified by gel filtration and concentrated by Centriprep. For BIAcore™ analysis, recombinant ICAM-1, ICAM-2 and ICAM-3 Fc chimeras were immobilized on the BIAcore™ sensor chip by an amine-coupling method. Recombinant αL I-domains were flowed in, and BIAcore™ assays were performed with Tris-buffered saline supplemented with 1 mM MgCl2 or 2 mM EDTA, at a flow rate of 10 μl/minute at 25° C.
Target sequence in this assay (P05362 28-480 limits assumed): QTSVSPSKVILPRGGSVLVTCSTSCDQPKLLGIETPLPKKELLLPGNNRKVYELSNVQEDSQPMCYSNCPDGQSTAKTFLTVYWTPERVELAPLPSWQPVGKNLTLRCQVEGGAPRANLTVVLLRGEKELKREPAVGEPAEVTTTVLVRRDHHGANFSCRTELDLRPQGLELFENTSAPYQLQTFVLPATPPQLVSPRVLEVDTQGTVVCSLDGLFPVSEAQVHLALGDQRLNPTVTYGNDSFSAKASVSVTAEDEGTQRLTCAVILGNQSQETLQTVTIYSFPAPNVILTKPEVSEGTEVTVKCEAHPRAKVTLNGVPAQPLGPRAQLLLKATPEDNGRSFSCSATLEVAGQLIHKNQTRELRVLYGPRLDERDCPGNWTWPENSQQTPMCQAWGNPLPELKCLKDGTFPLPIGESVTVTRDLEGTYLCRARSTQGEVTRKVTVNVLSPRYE

For experiment [2], the target named is T1, ICAM-1. In words: Binding of LFA-1 or isolated I-domain transfectants to immobilized ICAM-1. Type of experiment: cell-based. Also on record: ICAM-1 was purified from human tonsil; from tissue; host or cells: human tonsil. The conditions noted are these: for binding of 293T transient transfectants to immobilized ICAM-1 with activating mAb CBRLFA-1/2: CBRLFA-1/2 10 μg/ml; for binding of 293T transient transfectants to immobilized ICAM-1: no activating antibody. Here is the method:
Clones of the transfectants that expressed similar levels of cell surface LFA-1, as determined by flow cytometry using monoclonal antibody TS2/4 (FIG. 3B), were tested for their ability to bind to immobilized ICAM-1, as previously described (Lu, C and Springer, T A (1997) J Immunol 159:268-278).
Briefly, ICAM-1 was purified from human tonsil, and coated to 96-well plates as described previously (Lu, C and Springer T A, (1997) J Immunol 159:268-278). Cells were labeled with a florescence dye 2′,7′-bis-(carboxyethyl)-5(and-6)-carboxyfluorescein, acetoxymethyl ester (BCECF-AM), and resuspended to 1×10^6/ml in L15/FBS. 50 μl cell suspension was mixed in ICAM-1 coated wells with an equal volume of L15/FBS in the absence or presence of monoclonal antibody (CBRLFA-1/2, 10 μg/ml). Monoclonal antibodies were used at final concentration of 1:20 hybridoma supernatant, 1:200 ascites, or μg/ml purified IgG. For testing the effect of divalent cations, BCECF-AM-labeled cells were washed 2× with TS buffer, pH7.5 (20 mM Tris, pH 7.5, 150 mMNaCl) containing 5 mM EDTA, followed by 2 washes with TS buffer, pH7.5. Cells were then resuspended to 5×10^5/ml in the TS buffer, pH7.5 supplemented with 1 mM MgCl2/CaCl2, MgCl2, MnCl2 mM EDTA, and 100 μl cell suspension was added to ICAM-1 coated wells. After incubation at 37° C. for 30 minutes, unbound cells were washed off on a Microplate Autowasher (Bio-Tek Instruments, Winooski, Vt.). The fluorescence content of total input cells and the bound cells in each well was quantitated on a Fluorescent Concentration Analyzer (IDEXX, Westbrook, Me.). The bound cells were expressed as a percentage of total input cells per sample well.
For generating stable K562 transfectants that express the I-domain on the surface, 20 μg of SspI-linearized pcDNA3.1/Hygro(+) containing the sequences encoding the I domain and the PDGFR transmembrane domain was used to transfect K562 cells by electroporation as described above. Transfectants were selected for resistance to 100 μg/ml hygromycin B, and were further subcloned by cell sorting and limiting dilution; clones that expressed similar levels of surface wild-type and mutant I domain-PDGFR were selected for functional studies. Stable cell lines were maintained in RPMI medium 1640 supplemented with 10% FBS and 100 μg/ml hygromycin B. Cell surface expression of the isolated I-domains was determined by flow cytometry using antibody TS1/22 to the I-domain (FIG. 7). Two clones from each transfectant were selected and tested for binding to immobilized ICAM-1, and similar results were obtained with each of the two clones (FIG. 8A).
If the constitutive ligand binding activity of mutant K287C/K294C is due to the formation of a disulfide bond between the introduced C287 and C294, disruption of the disulfide bond with a reducing agent would abolish ligand binding ability of the mutant. Accordingly, the transfectants were treated with the reducing agent DTT (10 mM) in L15/FBS containing Mg^2+ and Ca^2+, and the ability of transfectants to bind to ICAM-1 was assessed.
Furthermore, the effect of divalent cations on ligand binding of the isolated I-domains expressed on the surface of K562 transfectants was tested. The binding reactions were performed in HEPES/NaCl/glucose (20 mM HEPES, pH 7.5, 140 mM NaCl, 2 mg/ml glucose) supplemented with 1 mM […], 1 mM Mg^2+, or 1 mM EDTA.
Target sequence in this assay (P05362 28-532): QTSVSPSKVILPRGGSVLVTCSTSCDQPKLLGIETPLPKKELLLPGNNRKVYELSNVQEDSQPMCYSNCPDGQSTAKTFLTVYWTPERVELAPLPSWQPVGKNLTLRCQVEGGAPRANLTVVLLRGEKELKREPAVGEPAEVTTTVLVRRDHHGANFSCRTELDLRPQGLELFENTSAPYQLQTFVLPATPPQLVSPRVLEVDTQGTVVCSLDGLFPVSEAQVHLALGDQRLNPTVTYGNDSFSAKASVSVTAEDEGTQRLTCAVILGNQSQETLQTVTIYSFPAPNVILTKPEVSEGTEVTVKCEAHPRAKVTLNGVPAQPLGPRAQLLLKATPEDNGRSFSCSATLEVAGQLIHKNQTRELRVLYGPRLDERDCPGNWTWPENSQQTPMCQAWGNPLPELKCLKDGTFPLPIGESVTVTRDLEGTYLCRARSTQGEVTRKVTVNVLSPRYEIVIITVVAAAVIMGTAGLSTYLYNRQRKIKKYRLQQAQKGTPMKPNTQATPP

B1: L289C/K294C: low affinity closed αL I-domain mutant, cysteines for L289 and K294 (protein)
chain: GNVDLVFLFDGSMSLQPDEFQKILDFMKDVMKKLSNTSYQFAAVQFSTSYKTEFDFSDYVKRKDPDALLKHVKHMLLLTNTFGAINYVATEVFREELGARPDATKVLIIITDGEATDSGNIDAAKDIIRYIIGIGKHFQTKESQETLHKFASKPASEFVKICDTFECLKDLFTELQKKIY
Consider B1, for which, in experiment [1], the “Kon, interaction of αL I-domains with ICAM-1” value (shortened to “Kon, interaction”) is 2110 M⁻¹ s⁻¹ and the “Koff, interaction of αL I-domains with ICAM-1” value (“Koff, interaction” below) was 2.84 s⁻¹. In experiment [2], the “binding of 293T transient transfectants to immobilized ICAM-1 with activating mAb CBRLFA-1/2” value is “not able to activate binding” and the “binding of 293T transient transfectants to immobilized ICAM-1” value was “did not bind”. In experiment [2] (I-domain on cell surface via PDGFR transmembrane domain), the “binding of K562 cells expressing isolated I-domains to immobilized ICAM-1” value was “did not bind”. Also, in experiment [2] (K562, 1 mM Mn2+ or Mg2+), the “effect of Mn2+ or Mg2+ on ligand binding of isolated I-domains” value was “did not activate ligand binding”. Further, the “binding of K562 stable transfectants to immobilized ICAM-1 with activating mAb CBRLFA-1/2” value in experiment [2] (K562, CBRLFA-1/2 10 μg/ml) is on record as “did not binding to ICAM-1”. The “effect of Mn2+ and Mg2+ on binding of K562 transfectants to ICAM-1” value in experiment [2] (K562, intact LFA-1, Mn2+ / Mg2+) is listed as “did not increase binding”. Moreover, the “binding of K562 stable transfectants to immobilized ICAM-1” value in experiment [2] (K562, no activating antibody) was “did not binding to ICAM-1”. The “effect of DTT treatment on binding to ICAM-1” value in experiment [2] (K562 transfectants, DTT 10 mM in L15/FBS) was “did not affect binding”.

B2: K160C/F299C: intermediate-affinity open αL I-domain mutant, cysteines for K160 and F299 (protein)
chain: B1 chain with K33C, C162L, C167K, F172C
For the molecule B2, in experiment [1], the “Kon, interaction” value was 153000 M⁻¹ s⁻¹ and the “Koff, interaction” value worked out at 0.67 s⁻¹.

B3: L161C/F299C: intermediate-affinity open αL I-domain mutant, cysteines for L161 and F299 (protein)
chain: B1 chain with L34C, C162L, C167K, F172C
Regarding B3, in experiment [1], the “Kon, interaction” value was 136000 M⁻¹ s⁻¹ and the “Koff, interaction” value came out at 0.513 s⁻¹.

B4: E284C/E301C: high affinity open αL I-domain mutant, E284 and E301 replaced by cysteines (protein)
chain: B1 chain with E157C, C162L, C167K, E174C
Consider B4, for which the “affinity compared with high-affinity open αL I-domain K287C/K294C (times lower)” value in experiment [1] (ICAM-1, soluble I-domains) was “nearly comparable”. Further, in experiment [1], the “Kon, interaction” value was 128000 M⁻¹ s⁻¹ and the “Koff, interaction” value was 0.0459 s⁻¹.

B5: L161C/T300C: intermediate-affinity open αL I-domain mutant, cysteines for L161 and T300 (protein)
chain: B1 chain with L34C, C162L, C167K, T173C
Turning to B5, in experiment [1], the “Kon, interaction” value is 135000 M⁻¹ s⁻¹ and the “Koff, interaction” value stood at 0.65 s⁻¹.

B6: K287C: single cysteine substitution mutant of LFA-1 αL (protein, UniProt P20701 26-1170, looked up, variant K287C)
Integrin alpha-L: YNLDVRGARSFSPPRAGRHFGYRVLQVGNGVIVGAPGEGNSTGSLYQCQSGTGHCLPVTLRGSNYTSKYLGMTLATDPTDGSILACDPGLSRTCDQNTYLSGLCYLFRQNLQGPMLQGRPGFQECIKGNVDLVFLFDGSMSLQPDEFQKILDFMKDVMKKLSNTSYQFAAVQFSTSYKTEFDFSDYVKRKDPDALLKHVKHMLLLTNTFGAINYVATEVFREELGARPDATKVLIIITDGEATDSGNIDAAKDIIRYIIGIGKHFQTKESQETLHKFASKPASEFVCILDTFEKLKDLFTELQKKIYVIEGTSKQDLTSFNMELSSSGISADLSRGHAVVGAVGAKDWAGGFLDLKADLQDDTFIGNEPLTPEVRAGYLGYTVTWLPSRQKTSLLASGAPRYQHMGRVLLFQEPQGGGHWSQVQTIHGTQIGSYFGGELCGVDVDQDGETELLLIGAPLFYGEQRGGRVFIYQRRQLGFEEVSELQGDPGYPLGRFGEAITALTDINGDGLVDVAVGAPLEEQGAVYIFNGRHGGLSPQPSQRIEGTQVLSGIQWFGRSIHGVKDLEGDGLADVAVGAESQMIVLSSRPVVDMVTLMSFSPAEIPVHEVECSYSTSNKMKEGVNITICFQIKSLIPQFQGRLVANLTYTLQLDGHRTRRRGLFPGGRHELRRNIAVTTSMSCTDFSFHFPVCVQDLISPINVSLNFSLWEEEGTPRDQRAQGKDIPPILRPSLHSETWEIPFEKNCGEDKKCEANLRVSFSPARSRALRLTAFASLSVELSLSNLEEDAYWVQLDLHFPPGLSFRKVEMLKPHSQIPVSCEELPEESRLLSRALSCNVSSPIFKAGHSVALQMMFNTLVNSSWGDSVELHANVTCNNEDSDLLEDNSATTIIPILYPINILIQDQEDSTLYVSFTPKGPKIHQVKHMYQVRIQPSIHDHNIPTLEAVVGVPQPPSEGPITHQWSVQMEPPVPCHYEDLERLPDAAEPCLPGALFRCPVVFRQEILVQVIGTLELVGEIEASSMFSLCSSLSISFNSSKHFHLYGSNASLAQVVMKVDVVYEKQMLYLYVLSGIGGLLLLLLIFIVLYKVGFFKRNLKEKMEAGRGVPNGIPAEDSEQLASGQEAGDPGCLKPLHEKDSESGGGKD
Regarding B6, in experiment [2], the “binding of 293T transient transfectants to immobilized ICAM-1 with activating mAb CBRLFA-1/2” value is recorded as “increased” and the “binding of 293T transient transfectants to immobilized ICAM-1” value is reported as “reduced binding”.

The record behind these values is patent publication US8241627B2, “Modified polypeptides stabilized in a desired conformation and methods for producing same” (The Center for Blood Research, Inc., priority 2000, dated 2012).
